One may read the Kd as a measure of binding affinity in units of concentration. The low end stands for higher affinity, the high end for lower affinity.

The values that follow come from patent US20160297891A1 (Zymeworks, published 2016).

The target in test [1] is T1, HER2 extracellular domain (soluble analyte in SPR) (human). The test is described as follows: SPR, the reference itself. (In general: Surface plasmon resonance follows binding to a sensor surface in real time, without labels.)
In test [2] the target is T1, HER2 extracellular domain (soluble …). Kind of test: SPR, standard deviation of KD.
Test [3] has the same target. The test is described as follows: SPR (Biacore T200), variant captured on anti-human Fc, Her2 injected, single cycle kinetics, 25 C.

B1: v4182, monovalent (one-armed) anti-HER2 antibody with a Fab derived from pertuzumab on chain A (antibody, IgG1)
heavy: EVQLVESGGGLVQPGGSLRLSCAASGFTFTDYTMDWVRQAPGKGLEWVADVNPNSGGSIYNQRFKGRFTLSVDRSKNTLYLQMNSLRAEDTAVYYCARNLGPSFYFDYWGQGTLVTVSSASTKGPSVFPLAPSSKSTSGGTAALGCLVKDYFPEPVTVSWNSGALTSGVHTFPAVLQSSGLYSLSSVVTVPSSSLGTQTYICNVNHKPSNTKVDKKVEPKSCDKTHTCPPCPAPELLGGPSVFLFPPKPKDTLMISRTPEVTCVVVDVSHEDPEVKFNWYVDGVEVHNAKTKPREEQYNSTYRVVSVLTVLHQDWLNGKEYKCKVSNKALPAPIEKTISKAKGQPREPQVYVYPPSRDELTKNQVSLTCLVKGFYPSDIAVEWESNGQPENNYKTTPPVLDSDGSFALVSKLTVDKSRWQQGNVFSCSVMHEALHNHYTQKSLSLSPG
chain: not shown
light: not shown
notes: also called OA-pert
Consider B1, for which, in test [1], the KD_wt/KD_var was determined as 1 fold. For the same molecule, in test [2], the “STEDEV KD” value turned out to be 4.2 nM. In test [3], this molecule returned a dissociation constant Kd of 14.9 nM.
